Each block holds one sequence with its values, some of them ahead of it.
Tests used:
HLA-A*01:01 [1] = experiment: IEDB peptide-MHC binding, purified MHC/competitive/radioactivity; filed as Kd, often an IC50 or EC50 that approximates it; ≥ and ≤ were set here for values at or beyond the usual limits of such assays
HLA-A*30:01 = experiment: as above
HLA-A*30:02 = experiment: as above
HLA-A*29:02 = experiment: as above
HLA-A*23:01 = experiment: as above
HLA-A*26:01 = experiment: as above
HLA-A*24:02 = experiment: as above
HLA-B*44:02 = experiment: as above
HLA-A*02:01 = experiment: IEDB peptide-MHC binding, purified MHC/direct/fluorescence; filed as Kd, often an IC50 or EC50 that approximates it; ≥ and ≤ were set here for values at or beyond the usual limits of such assays; conditions: source organism: Encephalitozoon cuniculi
HLA-A*69:01 = experiment: as above
HLA-A*01:01 [2] = experiment: as above
HLA-A*03:01 = experiment: as above; conditions: source organism: Mycobacterium tuberculosis
[3] = source organism: Dengue virus 1 Brazil/97-11/1997
[4] = source organism: Dengue virus 3 Martinique/1243/1999
[5] = source organism: Dengue virus 2 Jamaica/1409/1983
[6] = source organism: SARS coronavirus Tor2
[7] = source organism: Dengue virus 4 Philippines/H241/1956
[8] = source organism: Triticum aestivum
[9] = source organism: Vaccinia virus WR
[10] = source organism: Encephalitozoon cuniculi
[11] = source organism: Mammarenavirus machupoense
[12] = source organism: Lymphocytic choriomeningitis virus (strain Armstrong)
[13] = source organism: Lassa virus Josiah
[14] = source organism: Mammarenavirus lassaense

Sequence: TSEIQLTDY
Kd (HLA-A*01:01 [1]; [3]): 323 nM

Sequence: GVYPMSIPAT
Kd (HLA-A*30:01; [3]): 10400 nM

Sequence: QNYVCKHTY
Kd (HLA-A*30:02; [4]): ≥ 76900 nM

Sequence: MANIFRGSY
Kd (HLA-A*30:02; [5]): 113 nM

Sequence: FSSRMYCSFY
Kd (HLA-A*29:02; [6]): 40.2 nM
Kd (HLA-A*23:01; [6]): ≥ 42400 nM
Kd (HLA-A*30:02; [6]): 2.15 nM
Kd (HLA-A*26:01; [6]): 23 nM
Kd (HLA-A*24:02; [6]): ≥ 43100 nM
Kd (HLA-A*01:01 [1]; [6]): 2.72 nM

Sequence: KEMAETQHG
Kd (HLA-B*44:02; [7]): 143 nM

Sequence: LSRKTFDTEY
Kd (HLA-A*30:02; [3]): 975 nM
Kd (HLA-A*01:01 [1]; [3]): 503 nM

Sequence: YDQENPYRTW
Kd (HLA-B*44:02; [7]): 156 nM

Sequence: AGPVSQHNY
Kd (HLA-A*30:02; [5]): 23.2 nM

Kd (HLA-A*29:02; [8]): 1470 nM
Kd (HLA-A*23:01; [8]): 7750 nM
Kd (HLA-A*30:02; [8]): 831 nM
Kd (HLA-A*26:01; [8]): ≥ 77900 nM
Kd (HLA-A*24:02; [8]): 206 nM
Kd (HLA-A*01:01 [1]; [8]): ≥ 78100 nM
Sequence: QFLGQQQPF

Sequence: HLRDQSIKI
Kd (HLA-A*30:01; [9]): 15.2 nM

Sequence: CSRCLSLFY
Kd (HLA-A*30:01; [9]): 22.1 nM

Sequence: EWSVATFYL
Kd (HLA-A*29:02; [6]): ≥ 59400 nM
Kd (HLA-A*23:01; [6]): 5500 nM
Kd (HLA-A*30:02; [6]): ≥ 29700 nM
Kd (HLA-A*26:01; [6]): ≥ 45400 nM
Kd (HLA-A*24:02; [6]): 1780 nM
Kd (HLA-A*01:01 [1]; [6]): ≥ 78100 nM

Sequence: VFHLYLQYI
Kd (HLA-A*29:02; [6]): ≥ 71400 nM
Kd (HLA-A*23:01; [6]): 566 nM
Kd (HLA-A*30:02; [6]): ≥ 125000 nM
Kd (HLA-A*26:01; [6]): 90.7 nM
Kd (HLA-A*24:02; [6]): 1090 nM
Kd (HLA-A*01:01 [1]; [6]): 198 nM

Sequence: EVEDYGFGM
Kd (HLA-A*26:01; [7]): 3900 nM

Sequence: MWHVTRGAVL
Kd (HLA-A*23:01; [5]): 1460 nM
Kd (HLA-A*24:02; [5]): 1690 nM

Sequence: ITTATRCPTQ
Kd (HLA-A*30:01; [7]): 9440 nM

Sequence: LCANEYTGNY
Kd (HLA-A*29:02; [6]): 98.3 nM
Kd (HLA-A*23:01; [6]): ≥ 70000 nM
Kd (HLA-A*30:02; [6]): 80.4 nM
Kd (HLA-A*26:01; [6]): ≥ 29900 nM
Kd (HLA-A*24:02; [6]): ≥ 70300 nM
Kd (HLA-A*01:01 [1]; [6]): 445 nM

Sequence: EISNMLSII
Kd (HLA-A*26:01; [4]): 3370 nM

Sequence: QGKRTLTPQP
Kd (HLA-A*30:01; [4]): 1270 nM

Sequence: GYISTRVEM
Kd (HLA-A*23:01; [5]): 1140 nM

Kd (HLA-A*02:01): 168 nM
Kd (HLA-A*69:01; [10]): ≥ 20000 nM
Sequence: FMRSISDDA

Sequence: NAICSAVPVH
Kd (HLA-A*30:01; [4]): 2950 nM

Sequence: AYSKSLKELV
Kd (HLA-A*29:02; [11]): ≥ 57000 nM
Kd (HLA-A*23:01; [11]): 16300 nM
Kd (HLA-A*30:02; [11]): ≥ 26700 nM
Kd (HLA-A*26:01; [11]): ≥ 69700 nM
Kd (HLA-A*24:02; [11]): 2640 nM
Kd (HLA-A*01:01 [1]; [11]): ≥ 70400 nM

Sequence: KFKLTLPNK
Kd (HLA-A*30:01; [9]): 12.1 nM

Sequence: DYFESFSSFF
Kd (HLA-A*29:02; [12]): 0.356 nM
Kd (HLA-A*23:01; [12]): 4.72 nM
Kd (HLA-A*24:02; [12]): 11 nM

Sequence: NLITCNDHY
Kd (HLA-A*01:01 [2]; source organism: Mammarenavirus juninense): ≥ 20000 nM

Sequence: NEWITDFAG
Kd (HLA-B*44:02; [4]): 6550 nM

Sequence: KYKYFSGAL
Kd (HLA-A*29:02; [6]): ≥ 25000 nM
Kd (HLA-A*23:01; [6]): 15000 nM
Kd (HLA-A*30:02; [6]): ≥ 44600 nM
Kd (HLA-A*26:01; [6]): ≥ 75500 nM
Kd (HLA-A*24:02; [6]): ≥ 25700 nM
Kd (HLA-A*01:01 [1]; [6]): ≥ 78100 nM

Sequence: KVRSNAAIG
Kd (HLA-A*30:01; [3]): 13.6 nM

Sequence: SKIPGGNMY
Kd (HLA-A*30:02; [3]): 2450 nM

Sequence: TSETFSMGL
Kd (HLA-A*01:01 [1]; [7]): 7690 nM

Sequence: HQYPANLFY
Kd (HLA-A*30:01; [9]): 50.8 nM

Sequence: NMDRAVKLY
Kd (HLA-A*01:01 [2]; source organism: Influenza A virus (A/Hong Kong/488/97(H5N1))): 584 nM

Sequence: ITDFVGKTV
Kd (HLA-A*01:01 [1]; source organism: Dengue virus 3 Singapore/8120/1995): ≥ 39700 nM

Sequence: LYNFATCGLV
Kd (HLA-A*29:02; [13]): 620 nM
Kd (HLA-A*23:01; [13]): 2350 nM
Kd (HLA-A*30:02; [13]): 575 nM
Kd (HLA-A*26:01; [13]): ≥ 69700 nM
Kd (HLA-A*24:02; [13]): 11900 nM
Kd (HLA-A*01:01 [1]; [13]): ≥ 31300 nM

Sequence: RYMGEDGCWY
Kd (HLA-A*30:02; [4]): ≥ 69700 nM
Kd (HLA-A*24:02; [4]): 828 nM

Sequence: ICGGTIDAY
Kd (HLA-A*29:02; [14]): ≥ 21800 nM
Kd (HLA-A*23:01; [14]): ≥ 77700 nM
Kd (HLA-A*30:02; [14]): 68.6 nM
Kd (HLA-A*26:01; [14]): ≥ 77900 nM
Kd (HLA-A*24:02; [14]): ≥ 77500 nM
Kd (HLA-A*01:01 [1]; [14]): ≥ 40200 nM

Sequence: VLIDAGLPK
Kd (HLA-A*03:01): 319 nM

Kd (HLA-A*02:01): 40.4 nM
Kd (HLA-A*69:01; [10]): ≥ 20000 nM
Sequence: KMYEYVFKG

Sequence: EISNMLNIM
Kd (HLA-A*26:01; source organism: Dengue virus 1 Singapore/S275/1990): 476 nM

Sequence: AESLVGFLFY
Kd (HLA-A*29:02; [11]): 97.6 nM
Kd (HLA-A*23:01; [11]): ≥ 66200 nM
Kd (HLA-A*30:02; [11]): 450 nM
Kd (HLA-A*26:01; [11]): ≥ 69700 nM
Kd (HLA-A*24:02; [11]): ≥ 70300 nM
Kd (HLA-A*01:01 [1]; [11]): ≥ 52100 nM

Sequence: TFIRSTMPL
Kd (HLA-A*23:01; [7]): 255 nM

Sequence: VLCPYMPKV
Kd (HLA-A*69:01; source organism: West Nile virus): 1610 nM

Sequence: RRRTAGMII
Kd (HLA-A*30:01; source organism: Dengue virus 2 Peru/IQT2913/1996): 4830 nM

Reference: the Immune Epitope Database (IEDB)
